Patent US12723255B2, “Herbicide tolerance genes and methods of use thereof” (priority 2014, dated 2026)
Where two headings read alike, the source gives them in different places.

Key:
[1] = enzyme kinetic measurements with purified protein; assay type: biochemical; details: for Km: 0-1280 uM substrate; for Vmax Fenoxaprop / Vmax Fluazifop / Vmax Haloxyfop / Vmax Quizalofop-P: relative values
Procedure: The high-throughput herbicide degradation enzyme assay was designed to assay the enzymatic activity of the engineered proteins towards various herbicides using crude bacterial extract. The engineered protein's oxygenase activity (that is, its enzymatic activity) was measured by an end point colorimetric assay utilizing detection of phenol products through measurement of absorbance at 510 nm from 4-aminoantipyrine and potassium ferricyanide. This assay was based on the assay described in Fukomori and Hausinger, Journal of Biological Chemistry (1993) 268(32):24311-24317. Enzyme reactions were assayed in 96-well plates in a total volume of 150ul that contained: 20 mM MOPS pH 6.75, 50-200 uM NH4FeSO4, 50-200 uM sodium ascorbate, 1 mM alpha-ketoglutarate (aKG), 10 ul of E. coli cell lysate containing expressed engineered protein, and substrate (either an AOPP herbicide or phenoxy acid herbicide). […] Absorbance measurements were made on a standard laboratory spectrometer. Assays were scaled as needed to enhance throughput. Standard curves were generated using purified protein or product standards.
Further protein characterization, such as Km, Vmax, and crystal structure analysis, was performed using the five engineered proteins from Table 2. For this detailed analysis, purified protein was prepared as follows: 2 ml overnight cultures of E. coli expressing a transgene encoding a given MON-HT protein were used to inoculate 500 ml of broth and grown at 37° C. for 4 hours followed by culture at 15° C. for approximately 36 hours. Then 250 ml of the 500 ml bacterial culture was pelleted by centrifugation and resuspended in 25 ml of extraction buffer (20 mM Tris, pH 7.8, 300 mM NaCl, 5 mM beta-mercaptoethanol (BME), 20 mM imidazole (Fluka/Sigma-Aldrich, St. Louis, MO), 125 units/ml of benzonase and 10K units/ml of lysozyme (Novagen, Darmstadt, Germany). The cell slurry was passed through a cell disruptor once at 20000 psi and then this cell lysate was clarified by centrifugation at 35,000×g for 20 min at 4° C. The supernatant containing the soluble His-tagged proteins was used for protein purification. For this purification, the supernatant was applied to a 1 ml HisTrap™ FF column (Nickel Sepharose) (GE Healthcare, Piscataway, NJ) using an AKTaxpress™ system (GE Healthcare, Piscataway, NJ) following the standard manufacturer's protocol. The wash buffer consisted of: 20 mM Tris pH 7.8, 300 mM NaCl, 20 mM imidazole and 5 mM BME. The composition of elution buffer was the same as the wash buffer except with 500 mM imidazole. The eluate from the nickel column was desalted on a Quick Spin Protein Sephadex G-25 fine column (Roche Applied Science, Indianapolis, IN) following the manufacturer's protocol. The eluted protein was in buffer consisting of: 20 mM Tris pH 7.8, 50 mM NaCl and 5 mM BME. Protein extract purity was assessed by SDS-PAGE analysis. Protein concentration was determined by Bradford assay using Bio-Rad Protein Assay dye reagent (Biorad, Hercules, CA, cat no 500-0006).
Purified protein for the five engineered proteins was analyzed using the enzyme assay described in this Example 1, but with four different AOPP herbicides as substrates: quizalofop-P, haloxyfop, fenoxaprop, and fluazifop. Standard curves were generated using 2,4-dichlorophenol (2,4-DCP), which was used to produce a general phenol standard curve. The amount of phenol generated in the assay by the engineered proteins was calculated based on this standard curve. The controls were purified wild-type enzyme, no enzyme, and no substrate. Enzyme kinetic measurements of the five engineered proteins was done using 0, 20, 40, 80, 160, 320, 640, or 1280 uM of quizalofop-P, haloxyfop, fenoxaprop, or fluazifop herbicides.

transgenic maize plants = experiment: hybrid trait efficacy field trials (F1); assay type: in vivo; details: 2× quizalofop-P, six locations
Procedure: Inbred trait efficacy field trials were conducted to assess tolerance to the AOPP herbicides and sensitivity to the cyclohexanediones (CHD) herbicides in an inbred background. R2 inbred plants were generated by selfing a homozygous transgenic R1 plant and collecting seed. R2 inbred plants containing MON-HT55 with or without a CTP or MON-HT51 with a CTP and were evaluated at two field locations. Herbicide treatment was 2× quizalofop-P at 0.16 lb ai/acre applied PRE (after planting but before emergence) followed by quizalofop-P at 0.16 lb ai/acre applied at V4 growth stage followed by quizalofop-P at 0.16 lb ai/acre applied at V8 growth stage. Plots were rated for crop injury 7-10 days after herbicide application on a scale of 0-100 with zero being no injury and 100 being complete crop death. All data were subjected to analysis of variance and means separated at LSD (0.05). […] To test for sensitivity to CHD herbicides, which is desirable for use in volunteer control, plants were treated with a 1× rate of clethodim (0.25 lb ai/acre) at V8 growth stage. Volunteer control using a 1× rate of clethodim was 100% effective for all transgenic plants tested. Hybrid trait efficacy field trials were conducted to assess tolerance to the AOPP herbicides and sensitivity to the cyclohexanediones (CHD) herbicides in a hybrid background. F1 hybrid plants were produced by crossing an R1 inbred plant with a non-transgenic plant and collecting seed. The resulting F1 plants containing MON-HT55 (SEQ ID NO:13) with or without a CTP or MON-HT51 (SEQ ID NO: 3) without a CTP were evaluated at six field locations. The hybrid trait efficacy field trials were conducted at six locations under a range of environmental conditions, including high heat and drought conditions during the field season. This permitted the engineered protein to be evaluated in maize under high temperature and water stress conditions. Initial injury from 2× applications of quizalofop-P were higher than desired (>10% injury) at 7-10 days after application. Plants eventually grew out of most of the injury, with generally less injury from the V8 growth stage application as compared to the V4 growth stage application. Excessive injury was also noted when quizalofop-P was applied very early (for example, at VE-V2 growth stage).

B1: MON-HT51: engineered oxygenase protein, amino acid sequence SEQ ID NO:1 (protein)
chain: MHAALSPLSQRFERIAVQPLTGVLGAEITGVDLREPLSDSTWNEILDAFHTYQVIYFPGQAITNEQHIAFSRRFGPVDPVPLLKSIEGYPEVQMIRREANESGRVIGDDWHTDSSFLDAPPAAVVMRAIDVPEHGGDTGFLSMYTAYDALSDGLKKLISGLNVVHSATRVFGSLYQAQNRRFSNTSVKVMDVADGDRETVHPLVVTHPGSGRKGLYVNQVYCQRIEGMSEKESEPLLSFLFAHATKPEFTCRVRWKKDQVLVWDNLCTMHYAINDYHGQTRILHRTTVGGVRPAR
Km ([1]; read-out: Km Fenoxaprop): 870 µM | Km ([1]; read-out: Km Fluazifop): 4 µM | Km ([1]; read-out: Km Haloxyfop): 250 µM | Km ([1]; read-out: Km Quizalofop-P): 570 µM | Vmax Fenoxaprop [1]: 180 | Vmax Fluazifop [1]: 12 | Vmax Haloxyfop [1]: 48 | Vmax Quizalofop-P [1]: 120 | % injury after V4 spray (transgenic maize plants; CTP Yes): 51.8% | % injury after V8 spray (transgenic maize plants; CTP Yes): 33.3%

B2: MON-HT55: engineered oxygenase protein, amino acid sequence SEQ ID NO:11 (protein)
chain: MHAALSPLSQRFERIAVQPLTGVLGAEITGVDLREPLDDSTWNEILDAFHTYQVIYFPGQAITNEQHIAFSRRFGPVDPVPLLKSIEGYPEVQMIRREANESGRVIGENWHTDSTFLDAPPAAVVMYAKEIPPYGGDTLFTSMYTAWETLSPTMQATIEGLNVVHSATRVFGSLYQAQNRRFSNTSVKVMDVDAGDRETVHPLVVTHPETGRKGLYVNQVYCQRIEGMSEKESEPLLSFLFAHATKPEFTCRVRWQEGDVLVWDNLCTQHYAVPDYAGKFRYLTRTTVGGVRPAR
Km ([1]; read-out: Km Fenoxaprop): 200 µM | Km ([1]; read-out: Km Fluazifop): 50 µM | Km ([1]; read-out: Km Haloxyfop): 450 µM | Km ([1]; read-out: Km Quizalofop-P): 250 µM | Vmax Fenoxaprop [1]: 450 | Vmax Fluazifop [1]: 320 | Vmax Haloxyfop [1]: 190 | Vmax Quizalofop-P [1]: 320 | % injury after V4 spray (transgenic maize plants; CTP No): 46.8% | % injury after V8 spray (transgenic maize plants; CTP No): 78.8% | % injury after V4 spray (transgenic maize plants; CTP Yes): 42.6-48.3% | % injury after V8 spray (transgenic maize plants; CTP Yes): 14.2-38.8%
